Key:
Test in all cases: SPR; Biacore T200; receptor domains amine-coupled to CM5-S Series chips; analytes 0-20 nM flowed over; 10 mM HEPES, 150 mM NaCl, 3 mM EDTA, 0.05% surfactant P20, pH 7.4; double-referenced; 1:1 Langmuir fit
Settings in all cases: both partners purified
[1] = target: T1, human proBDNF Val66, furin cleavage-resistant (FCR) (human)
T1 construct: furin site 127RR128 changed to AA; non-glycosylated; Cloned in pET 24a(+); also called proBDNF FCR Val66
T1 sequence (P23560 whole entry, looked up): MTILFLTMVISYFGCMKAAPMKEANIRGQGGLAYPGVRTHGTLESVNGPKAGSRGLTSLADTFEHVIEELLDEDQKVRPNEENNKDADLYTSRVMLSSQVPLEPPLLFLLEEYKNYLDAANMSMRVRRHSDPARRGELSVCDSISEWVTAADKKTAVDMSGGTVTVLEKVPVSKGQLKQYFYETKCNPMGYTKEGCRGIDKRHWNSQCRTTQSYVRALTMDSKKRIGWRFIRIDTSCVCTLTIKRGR

[2] = target: T2, human proBDNF Met66, furin cleavage-resistant (FCR) (human)
T2 construct: furin site 127RR128 changed to AA; non-glycosylated; Cloned in pET 24a(+); also called proBDNF FCR Met66
T2 sequence (P23560 whole entry, looked up): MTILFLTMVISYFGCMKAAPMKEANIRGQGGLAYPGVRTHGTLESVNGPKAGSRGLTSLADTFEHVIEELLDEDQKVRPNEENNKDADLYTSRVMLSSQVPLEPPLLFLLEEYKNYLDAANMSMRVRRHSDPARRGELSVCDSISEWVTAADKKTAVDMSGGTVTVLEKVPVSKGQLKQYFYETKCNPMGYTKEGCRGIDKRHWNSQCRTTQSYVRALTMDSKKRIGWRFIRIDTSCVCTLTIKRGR

[3] = target: T3, brain-derived neurotrophic factor (BDNF)
T3 construct: mature BDNF (~14 kDa), the cut product of proBDNF; used as control analyte in SPR; also called mature BDNF
T3 sequence (P23560 19-247, species assumed, looked up): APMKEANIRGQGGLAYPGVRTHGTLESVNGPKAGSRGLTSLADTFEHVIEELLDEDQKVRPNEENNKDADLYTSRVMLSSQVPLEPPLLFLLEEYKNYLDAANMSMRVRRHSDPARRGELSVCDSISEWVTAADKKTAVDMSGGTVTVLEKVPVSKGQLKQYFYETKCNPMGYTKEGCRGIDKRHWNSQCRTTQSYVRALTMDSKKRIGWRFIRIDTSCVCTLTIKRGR

Kd [1]: 2.32 nM
koff [1]: 0.00367 s⁻¹
kon [1]: 1.61e+06 M⁻¹ s⁻¹
Kd [2]: 2.03 nM
koff [2]: 0.00392 s⁻¹
kon [2]: 1.99e+06 M⁻¹ s⁻¹
Kd [3]: 0.58 nM
koff [3]: 0.00232 s⁻¹
kon [3]: 4.57e+06 M⁻¹ s⁻¹
B1: TrkB immunoglobulin-like domain 2 (TrkBIg2) (domain or fragment)
chain: APTITFLESPTSDHHWCIPFTVKGNPKPALQWFYNGAILNESKYICTKIHVTNHTEYHGCLQLDNPTHMNNGDYTLIAKNEYGKDEKQISAHFMGWPG

— publication PMC4773404, “Activation of a synapse weakening pathway by human Val66 but not Met66 pro-brain-derived neurotrophic factor (proBDNF)” (Pharmacological Research, 2016)
